According to PMC7355856 (2020):

Key:
α-synuclein [1] = target: T1, α-synuclein (human, UniProt P37840 1-140); assay: SPR
α-synuclein [2] = target: T1, α-synuclein; assay: SPR; remark: listed apart in the source

B1: prolyl oligopeptidase (POP) (enzyme)
chain: MLSLQYPDVYRDETAVQDYHGHKICDPYAWLEDPDSEQTKAFVEAQNKITVPFLEQCPIRGLYKERMTELYDYPKYSCHFKKGKRYFYFYNTGLQNQRVLYVQDSLEGEARVFLDPNILSDDGTVALRGYAFSEDGEYFAYGLSASGSDWVTIKFMKVDGAKELPDVLERVKFSCMAWTHDGKGMFYNSYPQQDGKSDGTETSTNLHQKLYYHVLGTDQSEDILCAEFPDEPKWMGGAELSDDGRYVLLSIREGCDPVNRLWYCDLQQESSGIAGILKWVKLIDNFEGEYDYVTNEGTVFTFKTNRQSPNYRVINIDFRDPEESKWKVLVPEHEKDVLEWIACVRSNFLVLCYLHDVKNILQLHDLTTGALLKTFPLDVGSIVGYSGQKKDTEIFYQFTSFLSPGIIYHCDLTKEELEPRVFREVTVKGIDASDYQTVQIFYPSKDGTKIPMFIVHKKGIKLDGSHPAFLYGYGGFNISITPNYSVSRLIFVRHMGGILAVANIRGGGEYGETWHKGGILANKQNCFDDFQCAAEYLIKEGYTSPKRLTINGGSNGGLLVAACANQRPDLFGCVIAQVGVMDMLKFHKYTIGHAWTTDYGCSDSKQHFEWLVKYSPLHNVKLPEADDIQYPSMLLLTADHDDRVVPLHSLKFIATLQYIVGRSRKQSNPLLIHVDTKAGHGAGKPTAKVIEEVSDMFAFIARCLNVDWIP
α-synuclein [1]
  koff: 0.00118 s⁻¹
α-synuclein [2]
  Kd: 5.32 nM
